Experimental data reported in article PMC11804915, “Single-stranded DNA binding to the transcription factor PafBC triggers the mycobacterial DNA damage response”.

Assays:
Settings in all cases: protein: recombinant; tags: C-terminal Strep on PafC; copies: 1;1; label: FAM; single strand
PafBC WYL RR = biological target: T1, PafBC WYL RR (Mycobacterium smegmatis, UniProt A4ZHT0;A0QZ41 1-331;1-318, R211A;R214A;R201A;R204A); experiment: EMSA; up to 16 uM; ssDNA EMSA: 22.5 mM Hepes-KOH pH 7.8, 135 mM NaCl, 20 mM KCl, 5 mM MgCl2, 1 mM DTT, 37 C 15 min, 10 nM DNA, 0-16 uM PafBC; RNAP EMSA: 20 mM Hepes-NaOH pH 8, 100 mM K-acetate, 36 mM NaCl, 10 mM MgCl2, 2 mM DTT, 37 C 30 min
T1 sequence 1: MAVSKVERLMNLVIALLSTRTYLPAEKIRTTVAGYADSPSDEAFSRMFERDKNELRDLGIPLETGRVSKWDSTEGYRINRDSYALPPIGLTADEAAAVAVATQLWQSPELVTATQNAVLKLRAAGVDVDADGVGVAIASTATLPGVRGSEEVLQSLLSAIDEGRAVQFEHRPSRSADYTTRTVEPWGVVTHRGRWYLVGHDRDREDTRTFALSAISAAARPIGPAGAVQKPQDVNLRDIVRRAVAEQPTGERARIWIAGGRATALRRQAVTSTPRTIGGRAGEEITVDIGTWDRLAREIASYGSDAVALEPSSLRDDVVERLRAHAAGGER
T1 sequence 2: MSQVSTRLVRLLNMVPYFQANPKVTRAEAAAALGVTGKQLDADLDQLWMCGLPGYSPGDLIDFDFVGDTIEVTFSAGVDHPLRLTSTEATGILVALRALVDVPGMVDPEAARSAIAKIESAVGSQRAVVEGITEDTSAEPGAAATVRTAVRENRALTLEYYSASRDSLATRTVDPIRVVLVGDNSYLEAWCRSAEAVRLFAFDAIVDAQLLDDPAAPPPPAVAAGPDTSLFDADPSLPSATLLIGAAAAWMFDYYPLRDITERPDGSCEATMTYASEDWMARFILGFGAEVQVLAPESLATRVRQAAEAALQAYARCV

PafBC, PafB R181A = biological target: T2, PafBC, PafB R181A (Mycobacterium smegmatis, UniProt A4ZHT0;A0QZ41 1-331;1-318, R181A); experiment: as above
T2 sequence 1: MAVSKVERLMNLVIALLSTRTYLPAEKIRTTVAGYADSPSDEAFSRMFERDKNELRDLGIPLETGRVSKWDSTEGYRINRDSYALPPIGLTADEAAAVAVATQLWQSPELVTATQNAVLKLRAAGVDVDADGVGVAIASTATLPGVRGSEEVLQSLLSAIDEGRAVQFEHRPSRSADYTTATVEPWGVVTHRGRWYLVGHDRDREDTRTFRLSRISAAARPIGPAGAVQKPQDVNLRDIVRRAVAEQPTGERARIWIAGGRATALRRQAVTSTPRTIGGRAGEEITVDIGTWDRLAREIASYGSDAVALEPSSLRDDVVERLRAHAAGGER
T2 sequence 2: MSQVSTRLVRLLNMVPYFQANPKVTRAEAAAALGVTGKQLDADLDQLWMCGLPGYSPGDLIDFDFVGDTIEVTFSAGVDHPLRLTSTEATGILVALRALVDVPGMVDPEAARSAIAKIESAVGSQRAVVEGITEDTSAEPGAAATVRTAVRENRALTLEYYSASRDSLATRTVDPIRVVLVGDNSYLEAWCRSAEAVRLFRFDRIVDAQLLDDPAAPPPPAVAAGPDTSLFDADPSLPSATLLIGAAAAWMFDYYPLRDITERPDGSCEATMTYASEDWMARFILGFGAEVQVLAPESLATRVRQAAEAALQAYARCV

PafBC, PafC WYL variant = biological target: T3, PafBC, PafC WYL variant (Mycobacterium smegmatis, UniProt A4ZHT0;A0QZ41 1-331;1-318, R201A;R204A); experiment: EMSA; affinity comparable to WT; ssDNA EMSA: 22.5 mM Hepes-KOH pH 7.8, 135 mM NaCl, 20 mM KCl, 5 mM MgCl2, 1 mM DTT, 37 C 15 min, 10 nM DNA, 0-16 uM PafBC; RNAP EMSA: 20 mM Hepes-NaOH pH 8, 100 mM K-acetate, 36 mM NaCl, 10 mM MgCl2, 2 mM DTT, 37 C 30 min
T3 sequence 1: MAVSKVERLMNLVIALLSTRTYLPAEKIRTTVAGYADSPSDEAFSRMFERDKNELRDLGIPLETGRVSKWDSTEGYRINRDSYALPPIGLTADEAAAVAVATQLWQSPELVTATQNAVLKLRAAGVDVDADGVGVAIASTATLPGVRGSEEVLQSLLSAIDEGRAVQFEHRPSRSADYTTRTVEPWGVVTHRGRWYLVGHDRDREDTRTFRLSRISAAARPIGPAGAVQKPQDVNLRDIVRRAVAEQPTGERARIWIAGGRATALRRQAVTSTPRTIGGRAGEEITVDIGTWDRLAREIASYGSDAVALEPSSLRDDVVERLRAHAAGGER
T3 sequence 2: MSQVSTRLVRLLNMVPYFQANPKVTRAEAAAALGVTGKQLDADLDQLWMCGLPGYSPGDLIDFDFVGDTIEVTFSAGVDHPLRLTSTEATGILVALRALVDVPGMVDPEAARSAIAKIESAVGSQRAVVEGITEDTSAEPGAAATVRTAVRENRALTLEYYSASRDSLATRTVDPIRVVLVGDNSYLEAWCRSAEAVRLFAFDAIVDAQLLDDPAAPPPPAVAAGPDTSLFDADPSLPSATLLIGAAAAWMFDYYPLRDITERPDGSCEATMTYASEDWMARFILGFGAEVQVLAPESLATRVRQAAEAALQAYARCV

TTTTTTTTTTTTTTTTTTTT (ssDNA) [dT20 ssDNA]
binding result (PafBC WYL RR): no binding
binding result (PafBC, PafB R181A): no binding
binding result (PafBC, PafC WYL variant): binds
